Target: 35S-labeled hamster PrPsen, glycophosphoinositol-negative form (35S-HaPrPsen) (Syrian golden hamster) (UniProt P04273)
Experiment: cell-based or functional assay

## HaP109-141(del113-116) (peptide)
  IC50 of the conversion reaction: 70 µM

Source: patent US20010041790A1
